Source: US20240151714A1

Columns and labels:
[1] = biological target: hCG-second DNA conjugate (human) (UniProt P01215); test: cell-based or functional assay
[2] = biological target: hCG-first DNA conjugate (human) (UniProt P01215); test: cell-based or functional assay
Chain of hCG-first DNA conjugate (human) (P01215 other isoform, or with tags, fused parts or gaps limits assumed, chain 1 of 2, other chains not shown): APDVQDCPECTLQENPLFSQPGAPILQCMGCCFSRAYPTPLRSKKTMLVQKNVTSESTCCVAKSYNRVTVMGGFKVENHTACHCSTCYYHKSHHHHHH

Chain of hCG-second DNA conjugate (human) (P01215 other isoform, or with tags, fused parts or gaps limits assumed, chain 1 of 2, other chains not shown): as above

## hCG monoclonal antibody (MA5-14680; Thermo Fisher Scientific)
[1]
  limit of detection (LOD) for the antibody, PPR-based immunoassay (absorbance at 405 nm): 9.83 pM
[2]
  limit of detection (LOD) for the antibody, PPR-based immunoassay (absorbance at 405 nm): 9.83 pM
